Results reported in patent publication US5736363A, “IGF-II analogues” (British Bio-technology Limited, priority 1991, dated 1998).

Key:
type 1 IGF receptor = molecular target: T1, type 1 IGF receptor (Mus musculus, UniProt Q60751); experiment: Type 1 IGF receptor binding assay on Swiss mouse 3T3 cells; conditions: for IC50, inhibits binding of 125I-IGF-II (type 1 IGF receptor): mutant value holds for material from either secretion or refolding route
T1 construct: endogenous in cells; host or cells: Swiss mouse 3T3 cells
Method: Swiss 3T3 cells at 5×10^4 cells/ml were seeded into 24 well plates at 5×10^3 cells/well in DMEM containing 10% FCS and incubated at 37°. The cells were used for assay after 5-6 days. For the binding assay, the growth medium was flicked out of the plate, and the cells washed twice with binding medium (serum free DMEM containing 25 mM HEPES, 1 mg/ml BSA and 2 mM glutamine). A further 400 μl of binding medium was added to each well along with 50 μl of sample or IGF-II standard (Bachem). Twofold dilutions of IGF-II were used for the standard curve to give final concentrations in the well from 300-1.56 ng/ml. […] The plate was incubated at room temperature for 2 hr., the assay medium removed and the cells washed four limes in PBS containing 1 mg/ml BSA and 0.1 μM KI. The plates were blotted dry and the cells solubilised for by the addition of 750 μl 0.5M NaOH containing 0.2% w/v Triton X100. After 15 min the lysed samples were transferred to tubes and the residual counts determined using a gamma counter.

type 2 IGF receptor = molecular target: T2, type 2 IGF receptor (Rattus norvegicus, UniProt G3V824); experiment: Type 2 IGF receptor binding assay on H35 (rat hepatoma) cells
T2 construct: endogenous in cells; host or cells: H35 (rat hepatoma) cells
Method: Binding to the type 2 IGF receptor was assessed on H35 (rat hepatoma) cells, see FIG. 11. Cells at 5×10^5 cells/ml were seeded into 24 well plates at 5×10^4 cells/well in DMEM containing 0.5% FCS and incubated at 37°. The cells were used for assay after 2-3 days. For the binding assay, the growth medium was flicked out of the plate, and the cells washed once with binding medium (serum free DMEM containing 25 mM HEPES, 1 mg/ml BSA and 2 mM glutamine).
A further 400 μl of binding medium was added to each well along with 50 μl of sample or IGF-II standard (Bachem). Twofold dilutions of IGF-II were used for the standard curve to give final concentrations in the well from 300-1.56 ng/ml. Labelled IGF-II was then added (50 μl of […]) to give a final concentration of 2 ng/ml and a total of about 40,000 dpm per well. The plate was incubated at room temperature for 3 hr., the assay medium removed and the cells washed four times in Hanks buffered salt solution containing 1 mg/ml BSA. The plates were blotted dry and the cells solubilised for by the addition of 750 μl 10 mM Tris HCl, 5 mM EDTA, 0.2% w/v SDS. After 15 min the lysed samples were transferred to tubes and the residual counts determined using a gamma counter.

insulin receptor = molecular target: T3, insulin receptor (Rattus norvegicus, UniProt P15127); experiment: Insulin receptor binding assay on H35 cells
T3 construct: endogenous in cells; host or cells: H35 (rat hepatoma) cells

[1] = refolded material (HRP fusion route)

T2 sequence (G3V824 36-2481): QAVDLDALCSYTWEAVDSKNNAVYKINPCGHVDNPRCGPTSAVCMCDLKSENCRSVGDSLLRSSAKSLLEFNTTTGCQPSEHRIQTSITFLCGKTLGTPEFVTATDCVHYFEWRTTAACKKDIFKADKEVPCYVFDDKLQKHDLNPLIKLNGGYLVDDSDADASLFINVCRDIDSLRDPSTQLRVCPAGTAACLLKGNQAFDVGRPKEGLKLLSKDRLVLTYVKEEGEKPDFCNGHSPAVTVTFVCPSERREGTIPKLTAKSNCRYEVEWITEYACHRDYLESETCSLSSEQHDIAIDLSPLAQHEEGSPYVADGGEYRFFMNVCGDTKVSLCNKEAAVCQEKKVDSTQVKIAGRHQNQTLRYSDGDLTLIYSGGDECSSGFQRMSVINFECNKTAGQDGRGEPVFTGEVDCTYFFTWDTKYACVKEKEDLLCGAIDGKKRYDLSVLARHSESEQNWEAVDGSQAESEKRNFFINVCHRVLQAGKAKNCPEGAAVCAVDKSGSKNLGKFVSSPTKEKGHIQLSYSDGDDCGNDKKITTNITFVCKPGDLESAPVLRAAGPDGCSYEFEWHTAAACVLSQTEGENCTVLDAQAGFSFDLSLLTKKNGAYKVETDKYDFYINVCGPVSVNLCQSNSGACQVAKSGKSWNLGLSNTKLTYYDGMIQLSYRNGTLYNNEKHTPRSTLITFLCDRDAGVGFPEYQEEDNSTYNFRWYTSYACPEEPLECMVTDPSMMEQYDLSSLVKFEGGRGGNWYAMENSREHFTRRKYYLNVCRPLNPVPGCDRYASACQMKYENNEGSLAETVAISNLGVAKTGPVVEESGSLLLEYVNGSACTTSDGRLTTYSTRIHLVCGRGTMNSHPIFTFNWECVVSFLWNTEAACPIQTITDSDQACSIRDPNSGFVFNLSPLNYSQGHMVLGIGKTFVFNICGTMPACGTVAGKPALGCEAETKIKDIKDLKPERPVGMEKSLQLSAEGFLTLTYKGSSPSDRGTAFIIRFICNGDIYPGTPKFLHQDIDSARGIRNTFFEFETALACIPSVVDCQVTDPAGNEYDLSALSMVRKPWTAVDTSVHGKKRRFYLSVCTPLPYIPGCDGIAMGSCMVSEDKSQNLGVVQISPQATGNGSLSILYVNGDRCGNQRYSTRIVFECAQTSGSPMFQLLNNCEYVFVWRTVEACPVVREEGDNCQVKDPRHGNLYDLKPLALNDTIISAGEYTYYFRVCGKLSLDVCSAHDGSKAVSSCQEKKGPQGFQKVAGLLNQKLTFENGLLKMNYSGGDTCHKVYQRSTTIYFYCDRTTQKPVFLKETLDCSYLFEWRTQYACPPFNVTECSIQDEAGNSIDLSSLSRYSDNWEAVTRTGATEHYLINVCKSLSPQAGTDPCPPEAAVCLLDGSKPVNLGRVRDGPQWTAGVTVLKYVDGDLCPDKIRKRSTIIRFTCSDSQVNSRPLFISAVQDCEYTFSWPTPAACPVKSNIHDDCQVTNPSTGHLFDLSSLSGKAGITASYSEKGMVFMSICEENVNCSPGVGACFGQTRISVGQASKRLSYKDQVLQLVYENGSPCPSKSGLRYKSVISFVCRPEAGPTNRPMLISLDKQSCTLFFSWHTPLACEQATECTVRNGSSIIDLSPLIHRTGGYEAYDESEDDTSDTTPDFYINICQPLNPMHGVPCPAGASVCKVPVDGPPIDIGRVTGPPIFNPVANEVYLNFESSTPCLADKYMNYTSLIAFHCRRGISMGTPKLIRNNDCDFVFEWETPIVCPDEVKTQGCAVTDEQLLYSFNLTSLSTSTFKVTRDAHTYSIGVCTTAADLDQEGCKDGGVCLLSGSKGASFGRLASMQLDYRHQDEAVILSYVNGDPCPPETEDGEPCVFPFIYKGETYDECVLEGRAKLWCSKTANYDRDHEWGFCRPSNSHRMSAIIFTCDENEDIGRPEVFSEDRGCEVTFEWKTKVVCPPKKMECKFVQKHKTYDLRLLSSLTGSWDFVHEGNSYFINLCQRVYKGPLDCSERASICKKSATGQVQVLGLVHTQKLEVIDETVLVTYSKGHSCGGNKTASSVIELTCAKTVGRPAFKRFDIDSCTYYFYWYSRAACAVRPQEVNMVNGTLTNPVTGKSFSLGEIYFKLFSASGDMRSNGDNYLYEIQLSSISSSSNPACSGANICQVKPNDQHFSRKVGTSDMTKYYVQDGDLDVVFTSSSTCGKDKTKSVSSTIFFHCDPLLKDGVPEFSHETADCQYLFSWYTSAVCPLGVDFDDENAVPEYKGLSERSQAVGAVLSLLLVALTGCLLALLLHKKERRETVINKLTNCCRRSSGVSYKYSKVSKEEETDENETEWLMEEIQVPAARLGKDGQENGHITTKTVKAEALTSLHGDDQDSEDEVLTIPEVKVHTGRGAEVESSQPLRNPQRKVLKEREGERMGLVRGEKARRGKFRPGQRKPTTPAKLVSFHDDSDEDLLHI
T3 sequence (P15127 27-759 limits assumed): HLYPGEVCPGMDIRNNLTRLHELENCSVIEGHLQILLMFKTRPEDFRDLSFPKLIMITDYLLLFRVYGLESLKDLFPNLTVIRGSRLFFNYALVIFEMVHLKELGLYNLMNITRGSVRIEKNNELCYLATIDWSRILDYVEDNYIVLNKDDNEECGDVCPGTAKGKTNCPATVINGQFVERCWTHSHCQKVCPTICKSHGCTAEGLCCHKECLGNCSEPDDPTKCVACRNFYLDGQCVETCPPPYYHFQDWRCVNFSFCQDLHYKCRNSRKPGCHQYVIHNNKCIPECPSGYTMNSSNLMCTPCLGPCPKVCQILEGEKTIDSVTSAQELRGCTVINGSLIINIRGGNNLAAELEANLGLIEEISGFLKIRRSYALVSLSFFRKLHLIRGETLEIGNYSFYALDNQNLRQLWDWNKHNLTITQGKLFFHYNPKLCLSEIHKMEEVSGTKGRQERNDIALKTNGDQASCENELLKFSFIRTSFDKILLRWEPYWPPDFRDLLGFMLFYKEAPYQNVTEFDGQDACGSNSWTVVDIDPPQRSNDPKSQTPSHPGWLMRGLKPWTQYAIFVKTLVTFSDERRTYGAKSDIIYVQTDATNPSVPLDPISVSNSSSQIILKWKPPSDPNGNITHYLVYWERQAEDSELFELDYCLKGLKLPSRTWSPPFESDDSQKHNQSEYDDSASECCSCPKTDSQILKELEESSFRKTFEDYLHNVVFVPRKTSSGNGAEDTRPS
T3 sequence (P15127 764-1383 partner limits assumed): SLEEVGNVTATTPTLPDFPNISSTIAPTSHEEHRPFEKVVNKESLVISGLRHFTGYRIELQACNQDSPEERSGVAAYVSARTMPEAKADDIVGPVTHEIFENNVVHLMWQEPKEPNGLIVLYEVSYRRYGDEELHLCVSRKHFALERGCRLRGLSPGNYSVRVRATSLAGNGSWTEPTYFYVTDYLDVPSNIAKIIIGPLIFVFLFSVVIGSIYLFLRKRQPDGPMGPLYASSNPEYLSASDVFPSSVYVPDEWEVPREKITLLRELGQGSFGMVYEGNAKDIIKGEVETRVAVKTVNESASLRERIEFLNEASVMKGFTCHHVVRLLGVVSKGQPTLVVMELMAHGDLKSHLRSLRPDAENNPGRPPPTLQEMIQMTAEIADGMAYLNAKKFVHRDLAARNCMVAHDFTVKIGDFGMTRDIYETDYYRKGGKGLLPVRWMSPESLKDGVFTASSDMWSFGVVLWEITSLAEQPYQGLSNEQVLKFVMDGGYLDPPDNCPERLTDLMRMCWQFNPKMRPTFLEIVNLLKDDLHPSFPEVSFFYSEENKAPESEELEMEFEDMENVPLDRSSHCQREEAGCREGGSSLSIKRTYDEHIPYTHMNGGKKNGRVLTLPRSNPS

Row | IC50, inhibits binding of 125I-IGF-II (type 1 IGF receptor) (type 1 IGF receptor) [µg/mL] | IC50, inhibits binding of 125I-IGF-II (type 2 IGF receptor) (type 2 IGF receptor; commercial reference standard (Bachem)) [µg/mL] | IC50, inhibits binding of 125I-IGF-II (type 2 IGF receptor) (type 2 IGF receptor; [1]) [µg/mL] | IC50, inhibits binding of 125I-insulin (insulin receptor) (insulin receptor; [1]) [µg/mL] | affinity for the type 1 IGF receptor versus native IGF-II (type 1 IGF receptor) | affinity for the type 2 IGF receptor versus native IGF-II (type 2 IGF receptor) | IC50, inhibits binding of 125I-IGF-II (type 2 IGF receptor) (type 2 IGF receptor; secreted material) [µg/mL] | IC50, inhibits binding of 125I-insulin (insulin receptor) (insulin receptor; secreted material) [µg/mL] | Substance
1 | 0.06 | 0.018 |  |  |  |  |  |  | wild-type standard (Bachem): recombinant IGF-II from a commercial supplier (Bachem) used as a reference standard [reference compound]
2 | 0.1 |  | 0.03 | 0.16 |  |  |  |  | wild-type refolded material: wild-type IGF-II made by the HRP fusion route and refolded [reference compound]
3 | 0.21 |  | 0.06 | 1.3 | comparable to native IGF-II | comparable to native IGF-II | 0.03 | 1.6 | IGF-II (Q^37 Q^38): IGF-II with the modifications Arg37Gln and Arg38Gln
